These results are taken from the supplement of paper PMC10567573.

To fix the notation:
B1: HDAC6 (parent)
chain: KMKTRELHRESSNFDSIYICPSTF
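Also: lentivirally expressed fusions sorted by FACS into six bins by GFP to DsRed ratio, PSI derived from sequencing read proportions per bin multiplied by bin number.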

The variants in this data set derive from B1. Put plainly: protein stability index of a GFP-peptide fusion (GPS, HEK-293T) (PSI 1-6); higher = more stable. The note with it: c terminus: a fixed tail appended.
On to KMWTRELHRESSNFDSIYICPSTF [K3W], for which the protein stability index was 2.14. Take KMTTRELHRESSNFDSIYICPSTF [K3T]: the protein stability index came out at 2.2.

For the variant KMSTRELHRESSNFDSIYICPSTF [K3S], the protein stability index is 2.81. Consider KMNTRELHRESSNFDSIYICPSTF [K3N], for which the protein stability index is 2.32. On to KMLTRELHRESSNFDSIYICPSTF [K3L], for which the protein stability index turned out to be 1.71.

KMQTRELHRESSNFDSIYICPSTF [K3Q]: the protein stability index was 2.38. The figure for KMGTRELHRESSNFDSIYICPSTF [K3G] is 2.08; for KMFTRELHRESSNFDSIYICPSTF [K3F] it is 2.1; for KMATRELHRESSNFDSIYICPSTF [K3A] it is 2.62. For the variant KMVTRELHRESSNFDSIYICPSTF [K3V], the protein stability index was 2.3. For KMETRELHRESSNFDSIYICPSTF [K3E], the protein stability index was found to be 2.94.

For the variant KMCTRELHRESSNFDSIYICPSTF [K3C], the protein stability index came to 2.43. Regarding KMDTRELHRESSNFDSIYICPSTF [K3D], the protein stability index amounted to 2.59. The figure for KMYTRELHRESSNFDSIYICPSTF [K3Y] is 2.06; for KMPTRELHRESSNFDSIYICPSTF [K3P] it is 2.15; for KMHTRELHRESSNFDSIYICPSTF [K3H] it is 2.04. The figure for KMRTRELHRESSNFDSIYICPSTF [K3R] is 2.42; for KMMTRELHRESSNFDSIYICPSTF [K3M] it is 1.5.

As to KMKTRELLRESSNFDSIYICPSTF [H8L], the protein stability index worked out at 1.97. Turning to KMKTRELMRESSNFDSIYICPSTF [H8M], the protein stability index is 1.97.

As to KMKTRELERESSNFDSIYICPSTF [H8E], the protein stability index stood at 2.32. On to KMKTRELWRESSNFDSIYICPSTF [H8W], for which the protein stability index is 1.83. On to KMKTRELVRESSNFDSIYICPSTF [H8V], for which the protein stability index was 2.6. As to KMKTRELFRESSNFDSIYICPSTF [H8F], the protein stability index amounted to 1.69. The figure for KMKTRELTRESSNFDSIYICPSTF [H8T] is 2.21; for KMKTRELPRESSNFDSIYICPSTF [H8P] it is 2.56; for KMKTRELNRESSNFDSIYICPSTF [H8N] it is 2.07.

As for KMKTRELRRESSNFDSIYICPSTF [H8R], the protein stability index worked out at 2.22. The figure for KMKTRELYRESSNFDSIYICPSTF [H8Y] is 1.56; for KMKTRELDRESSNFDSIYICPSTF [H8D] it is 2.22.

For KMKTRELGRESSNFDSIYICPSTF [H8G], the protein stability index stood at 2.15. Consider KMKTRELQRESSNFDSIYICPSTF [H8Q], for which the protein stability index worked out at 2.92.

With KMKTRELKRESSNFDSIYICPSTF [H8K], the protein stability index came out at 2.5. With KMKTRELCRESSNFDSIYICPSTF [H8C], the protein stability index is 1.6. With KMKTRELSRESSNFDSIYICPSTF [H8S], the protein stability index came to 2.92. Take KMKTRELARESSNFDSIYICPSTF [H8A]: the protein stability index was 1.98.

With KMKTRELIRESSNFDSIYICPSTF [H8I], the protein stability index worked out at 1.38.

On to KMKTVELHRESSNFDSIYICPSTF [R5V], for which the protein stability index is 2.27. As for KMKTEELHRESSNFDSIYICPSTF [R5E], the protein stability index worked out at 2.73. On to KMKTFELHRESSNFDSIYICPSTF [R5F], for which the protein stability index amounted to 1.94. Regarding KMKTPELHRESSNFDSIYICPSTF [R5P], the protein stability index came to 2.36.

In the case of KMKTAELHRESSNFDSIYICPSTF [R5A], the protein stability index came to 1.98. The figure for KMKTDELHRESSNFDSIYICPSTF [R5D] is 2.62; for KMKTCELHRESSNFDSIYICPSTF [R5C] it is 1.91. In the case of KMKTWELHRESSNFDSIYICPSTF [R5W], the protein stability index was 1.72. On to KMKTKELHRESSNFDSIYICPSTF [R5K], for which the protein stability index amounted to 2.38. KMKTSELHRESSNFDSIYICPSTF [R5S]: the protein stability index was found to be 2.21. With KMKTMELHRESSNFDSIYICPSTF [R5M], the protein stability index came out at 2.4.

KMKTHELHRESSNFDSIYICPSTF [R5H]: the protein stability index amounted to 2.88. On to KMKTIELHRESSNFDSIYICPSTF [R5I], for which the protein stability index was determined as 1.83.

Turning to KMKTLELHRESSNFDSIYICPSTF [R5L], the protein stability index was 3.32. Regarding KMKTNELHRESSNFDSIYICPSTF [R5N], the protein stability index stood at 2.46. Turning to KMKTTELHRESSNFDSIYICPSTF [R5T], the protein stability index was determined as 2.15.

On to KMKTGELHRESSNFDSIYICPSTF [R5G], for which the protein stability index is 2.39. As to KMKTYELHRESSNFDSIYICPSTF [R5Y], the protein stability index came out at 1.8. For the variant KMKTQELHRESSNFDSIYICPSTF [R5Q], the protein stability index was found to be 2.08. In the case of KMKSRELHRESSNFDSIYICPSTF [T4S], the protein stability index was 2.94. Turning to KMKDRELHRESSNFDSIYICPSTF [T4D], the protein stability index came to 2.89. Take KMKGRELHRESSNFDSIYICPSTF [T4G]: the protein stability index turned out to be 2.83.

With KMKPRELHRESSNFDSIYICPSTF [T4P], the protein stability index is 2.05.

As to KMKMRELHRESSNFDSIYICPSTF [T4M], the protein stability index came to 1.65. On to KMKQRELHRESSNFDSIYICPSTF [T4Q], for which the protein stability index came to 2.26. Take KMKWRELHRESSNFDSIYICPSTF [T4W]: the protein stability index came to 2.19.

Consider KMKNRELHRESSNFDSIYICPSTF [T4N], for which the protein stability index turned out to be 2.03.

As to KMKKRELHRESSNFDSIYICPSTF [T4K], the protein stability index was 2.39.

On to KMKRRELHRESSNFDSIYICPSTF [T4R], for which the protein stability index was 2.41. The figure for KMKFRELHRESSNFDSIYICPSTF [T4F] is 2.11.

As for KMKVRELHRESSNFDSIYICPSTF [T4V], the protein stability index worked out at 2.08. KMKHRELHRESSNFDSIYICPSTF [T4H]: the protein stability index is 1.95. As to KMKERELHRESSNFDSIYICPSTF [T4E], the protein stability index is 1.99. On to KMKIRELHRESSNFDSIYICPSTF [T4I], for which the protein stability index came to 1.85.

KMKLRELHRESSNFDSIYICPSTF [T4L]: the protein stability index was determined as 1.72.

With KMKYRELHRESSNFDSIYICPSTF [T4Y], the protein stability index is 2. Regarding KMKCRELHRESSNFDSIYICPSTF [T4C], the protein stability index turned out to be 1.34. Consider KMKARELHRESSNFDSIYICPSTF [T4A], for which the protein stability index was determined as 2.29. The figure for KMKTREDHRESSNFDSIYICPSTF [L7D] is 2.73. As for KMKTRESHRESSNFDSIYICPSTF [L7S], the protein stability index was found to be 3.05. In the case of KMKTREHHRESSNFDSIYICPSTF [L7H], the protein stability index stood at 3.02. Take KMKTREGHRESSNFDSIYICPSTF [L7G]: the protein stability index was found to be 3.12. Take KMKTRENHRESSNFDSIYICPSTF [L7N]: the protein stability index was 2.65. For KMKTREYHRESSNFDSIYICPSTF [L7Y], the protein stability index came to 2.41. As to KMKTREIHRESSNFDSIYICPSTF [L7I], the protein stability index is 2. For KMKTREMHRESSNFDSIYICPSTF [L7M], the protein stability index amounted to 1.46. As to KMKTREKHRESSNFDSIYICPSTF [L7K], the protein stability index was determined as 3.11. Turning to KMKTRETHRESSNFDSIYICPSTF [L7T], the protein stability index came to 2.77.

Take KMKTREWHRESSNFDSIYICPSTF [L7W]: the protein stability index was 2.62. Take KMKTREPHRESSNFDSIYICPSTF [L7P]: the protein stability index stood at 2.72. On to KMKTRECHRESSNFDSIYICPSTF [L7C], for which the protein stability index is 1.75.

As for KMKTRERHRESSNFDSIYICPSTF [L7R], the protein stability index stood at 3.2. For the variant KMKTREQHRESSNFDSIYICPSTF [L7Q], the protein stability index is 2.72. With KMKTREFHRESSNFDSIYICPSTF [L7F], the protein stability index turned out to be 2.53. In the case of KMKTREEHRESSNFDSIYICPSTF [L7E], the protein stability index is 3.2. Turning to KMKTREAHRESSNFDSIYICPSTF [L7A], the protein stability index is 3.33. Take KMKTREVHRESSNFDSIYICPSTF [L7V]: the protein stability index was determined as 1.92.
